Here are results for six molecules from patent publication US20200247886A1 (ZLIP, published 2020).

Where a chain is given by its changes, count along the chain named.

The target in assay [1] is T1, human CD47 expressed on cells (CD47 expressing CHO cells, Jurkat, HL60, DLD1, Raji) (human, UniProt Q08722 19-292).
T1 construct: also called CHO-CD47; IAP
In words: flow cytometry on DLD1 cells, IgG, frequency. Background: A flow cytometer gives signals particle by particle.

The target in assay [2] is T1, human CD47 expressed on cells (CD47 …). In words: IC50 (nM) MFI as grade, blocking biotinylated SIRPa-Fc binding to DLD1 cells; legend +: >20 nM.
Assay [3] has the same target. In words: IC50 (nM) Frequency as grade, blocking biotinylated SIRPa-Fc binding to DLD1 cells; legend +++: <1 nM.
In assay [4] the target is T2, biotin labelled polyhistidine tagged CD47 protein (Novoprotein, Cat#321) (human, UniProt Q08722 19-139, biotin labelled (site not stated)).
T2 construct: Bought protein; also called biotinylated CD47; biotinylated human CD47 protein; not shown: polyhistidine tag
In words: IC50 (nM) as grade, Fab blocking biotinylated CD47 binding to SIRPα-CHO cells; legend ++: >10 nM and <65 nM.

Assay [5] has as its target T1, human CD47 expressed on cells (CD47 …). In words: EC50 (nM) as grade, flow cytometry, Fab on HL60 cells; legend +++: <1 nM.
For assay [6] the target is unchanged. In words: EC50 (nM) as grade, flow cytometry, Fab on DLD1 cells; legend ++: >5 nM and <60 nM.
The target of the next assay is T3, CD47 on monkey RBC (Macaca fascicularis, UniProt A0A2K5X523).
T3 construct: native, on red blood cells; also called cynomolgus monkey red blood cells expressing CD47
In words: flow cytometry on cynomolgus monkey red blood cells expressing CD47, MFI.

Assay [7] addresses T1, human CD47 expressed on cells (CD47 …). In words: flow cytometry on human platelets, MFI.
For assay [8] the target is unchanged. In words: flow cytometry on human red blood cells, MFI.
The target is the same in assay [9]. In words: flow cytometry blocking assay on Raji cells, SIRPα is the blocked ligand, MFI.
Assay [10] concerns the target T4, CD47 protein (construct not stated; SPR antigen, CD47 coated ELISA plates) (Homo sapiens (Human), UniProt Q08722 19-139, limits assumed).
T4 construct: also called the antigen
In words: SPR (Biacore T100), affinity (nM) as grade; legend +: >10 nM and <40 nM. (In general: SPR reads the build-up and loss of mass on a sensor chip optically.)

Assay [11] concerns the target T1, human CD47 expressed on cells (CD47 …). In words: flow cytometry on human red blood cells, donor 2, MFI; EC50 (nM) table beside the legend.
Another assay concerns the target T5, CHO/mCD47-GFP (mouse, UniProt Q61735).
T5 construct: on the cell surface; also called mouse CD47 expressed on CHO cells; CHO cell expressing mouse CD47
T5 sequence (receptor, looked up): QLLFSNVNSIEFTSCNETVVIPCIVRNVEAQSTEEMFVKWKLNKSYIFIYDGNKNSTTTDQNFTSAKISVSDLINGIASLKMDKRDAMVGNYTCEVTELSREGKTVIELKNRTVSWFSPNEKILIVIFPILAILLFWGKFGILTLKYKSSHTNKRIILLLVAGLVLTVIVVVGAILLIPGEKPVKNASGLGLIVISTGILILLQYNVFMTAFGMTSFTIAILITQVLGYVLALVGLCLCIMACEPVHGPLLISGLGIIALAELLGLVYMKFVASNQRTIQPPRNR
In words: flow cytometry on CHO cells expressing mouse CD47-GFP, binding percentage.

Assay [12] addresses T1, human CD47 expressed on cells (CD47 …). In words: EC50 (nM) as grade, binding on Jurkat cells; legend +++: >0.05 nM and <1 nM.
For assay [13] the target is unchanged. In words: EC50 (nM) as grade, binding on CHO-CD47 cells; legend +++: >0.05 nM and <1 nM.
The target in assay [14] is T6, human CD47-Fc protein (Novoprotein, Cat#CG18) (human, UniProt Q08722 19-139).
T6 construct: Bought protein; also called CD47-hFc; hCD47-hFc fusion protein; not shown: human IgG Fc of the bought fusion protein
In words: IC50 (nM) as grade, blocking of soluble CD47 binding to SIRPα-expressing CHO cells; legend ++: >1 nM and <10 nM.

In assay [15] the target is T6, human CD47-Fc protein (Novoprotein, …). In words: IC50 (nM) as grade, neutralizing ELISA, CD47-hFc on SIRPα coated plate; legend ++++: <8 nM.

B1: ABU40 (IgG, chimeric version of the Fab) (antibody, V domains shown)
VH: EVQLQQPGTELVKPGASVKLSCKASGYSFTTYWMHWVKQRPGQGLEWIGNINPSSGDSHYNEKFKSKATLTVDKSSSTAYMQLNSLTSEDSAVYYCARDYYGAYWGHGTLVTVSA
VL: DIQMTQSPASLSASVGETVTITCRASENIYSYLAWYQQKQGKSPQLLVYNAKTLAEGVPSRFSGSGSGTQFSLKINSLQPEDFGSYYCQHHYGTPLTFGAGTKLELK
For the molecule B1, the EC50 (read off the curve) (commonly the concentration at which the effect is half-maximal) in [1] is approximately 7 nM. Moreover, the IC50 – broadly, the concentration needed to halve the response being measured – in assay [2] was more than 20 nM; in assay [3] it was less than 1 nM.

B2: ABU8 (Fab) (Fab, V domains shown)
VH: EVQLQQSGTELVKPGASVKLSCKASGYTFISYWMHWVKQRPGQGLEWIGNINPSSGNTNYNEKFKTKATLTVDKSSSTAYMQLSSLTSEDSAVYYCVRDYYGNYWGQGTTVTVSS
VL: B1 VL with N76K, A100G
B2 had an IC50 in [4] of 10 to 65 nM. The figures for the EC50 in assay [5] and in assay [6] were less than 1 nM and 5 to 60 nM, respectively.

B3: H-ABU41-IgG4-P (antibody)
light chain: DVQITQSPSSLSASVGDRVTITCRASKNIGKYLAWFQQKPGKTNKLLIYSGSTLQSGIPSRFSGSGSGTDFTLTISSLQPEDFATYYCQQHNEYPYTFGGGTKVEIK
heavy chain: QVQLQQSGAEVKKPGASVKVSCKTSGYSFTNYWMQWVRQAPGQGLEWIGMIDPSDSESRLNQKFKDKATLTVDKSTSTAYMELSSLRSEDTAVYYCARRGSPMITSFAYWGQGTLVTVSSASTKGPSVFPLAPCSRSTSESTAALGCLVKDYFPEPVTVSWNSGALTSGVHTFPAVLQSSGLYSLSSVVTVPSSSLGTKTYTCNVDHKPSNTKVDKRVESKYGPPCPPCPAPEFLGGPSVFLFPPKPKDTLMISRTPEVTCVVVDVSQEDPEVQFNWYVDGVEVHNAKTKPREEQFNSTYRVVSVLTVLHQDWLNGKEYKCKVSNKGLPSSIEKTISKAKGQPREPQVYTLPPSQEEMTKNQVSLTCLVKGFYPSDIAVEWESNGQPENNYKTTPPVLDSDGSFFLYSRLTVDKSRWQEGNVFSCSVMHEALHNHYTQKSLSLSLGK
Regarding B3, the “EC50 (read off the curve)” value in the assay with CD47 on monkey RBC is approximately 0.1 µg/mL; in assay [7], approximately 2 nM; in assay [8], approximately 4 nM. For the same molecule, the “IC50 (read off the curve)” value in assay [9] was approximately 5 nM.

B4: H-ABU41-IgG4-PE (antibody)
light chain: B3 light chain
heavy chain: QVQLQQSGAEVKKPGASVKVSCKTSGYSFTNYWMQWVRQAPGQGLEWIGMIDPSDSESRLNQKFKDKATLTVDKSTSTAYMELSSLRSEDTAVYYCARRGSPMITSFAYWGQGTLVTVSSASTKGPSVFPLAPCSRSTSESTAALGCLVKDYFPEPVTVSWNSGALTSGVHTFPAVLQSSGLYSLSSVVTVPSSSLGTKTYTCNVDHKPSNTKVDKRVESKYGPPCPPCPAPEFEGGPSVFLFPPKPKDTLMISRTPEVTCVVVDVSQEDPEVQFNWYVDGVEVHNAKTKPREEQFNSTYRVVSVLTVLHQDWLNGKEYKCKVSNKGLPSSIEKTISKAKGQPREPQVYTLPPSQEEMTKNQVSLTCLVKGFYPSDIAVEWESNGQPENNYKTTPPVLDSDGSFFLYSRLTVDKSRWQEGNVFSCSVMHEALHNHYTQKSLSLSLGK
Take B4: the “EC50 (read off the curve)” value is approximately 0.1 µg/mL with CD47 on monkey RBC, approximately 2 nM in assay [7] and approximately 4 nM in [8]. In addition, the “IC50 (read off the curve)” value in assay [9] was approximately 3 nM.

B5: ABU5 (antibody, V domains shown)
VH: QVQLQQPGAELVKPGASVKMSCKASGYTFTNYWIAWVKRRPGQGLEWIGDFYPGNTSTNYNEKFKTKATLTIDTSSSTAYMQLSSLTSEDSAVYYCARRGRGGSSYWGQGTTLTVSS
VL: DVLMTQTPLSLPVSLGEQASISCRSSQSIVHSNGNTYLEWYLQKPGQSPKLLIYRVANRFSGVPDRFSGSGSGTDFTLKISRVEAEDLGVYYCFQGSHVPWTFGGGTKLEIK
notes: Murine hybridoma monoclonal antibody; also called ABUS [sic]
B5: the “Affinity by SPR” value in assay [10] lay in the range of 10 to 40 nM. The EC50 (commonly the concentration at which the effect is half-maximal) in assay [11] was 0.86 nM; in assay [12] it was 0.05 to 1 nM; in [13] it was 0.05 to 1 nM. The binding result in the assay with CHO/mCD47-GFP is given as “no binding (tested: about 0.4 ug/ml)”. For the same molecule, the results for the IC50 in assay [14] and in [15] were 1 to 10 nM and less than 8 nM, respectively.

B6: ABU24 (IgG, chimeric version of the Fab) (antibody, V domains shown)
VH: EVQLQQPGTELVKPGASVKLSCKASGYTFTSYWMHWVKQRPGQGLEWIGNVVPNNDGTNYNEKFRNKATLTVDKSSSTAYMQLSSLTSEDSAVYYCAVTYFAYWGQGTLVTVSA
VL: DAVVTQESALTTSPGETVTLTCRSSTGAVSTSNYANWVQEKPDHLFTGLIGGTNNRAPGVPARFSGSLIGDKAALTITGAQTEDEAIYFCALWYSNHWVFGGGTKLTVL
Consider B6, for which the “EC50 (read off the curve)” value in [1] was approximately 10 nM. Moreover, the IC50 was more than 20 nM in assay [2] and less than 1 nM in assay [3].
